According to PMC5095531:

Target: T1, native human lipocalin 2 (LCN2) (human), P80188
T1 chain: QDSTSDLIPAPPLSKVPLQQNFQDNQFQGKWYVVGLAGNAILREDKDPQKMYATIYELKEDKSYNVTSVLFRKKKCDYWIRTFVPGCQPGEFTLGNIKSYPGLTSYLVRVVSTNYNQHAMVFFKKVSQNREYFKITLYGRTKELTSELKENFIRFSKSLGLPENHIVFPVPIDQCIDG
Test: non-reducing SDS-PAGE with immunoblot; purified proteins in vitro, non-reducing conditions, anti-human LCN2 antibodies; monomer about 20 kDa, dimer about 40 kDa
Settings: remark: other sources report otherwise

stoichiometry N: 2
B1: native human lipocalin 2 (LCN2), P80188-1 21-198 (natural protein)
chain: QDSTSDLIPAPPLSKVPLQQNFQDNQFQGKWYVVGLAGNAILREDKDPQKMYATIYELKEDKSYNVTSVLFRKKKCDYWIRTFVPGCQPGEFTLGNIKSYPGLTSYLVRVVSTNYNQHAMVFFKKVSQNREYFKITLYGRTKELTSELKENFIRFSKSLGLPENHIVFPVPIDQCIDG
